Assay results reported in US6670167.

Test system: T1, Syntide-2, synthetic substrate peptide PLARTLSVAGLPGKK
T1 sequence: PLARTLSVAGLPGKK

“Proteolytically cleaved Chk1, preparation HA2-022” was tested, and the Activity was “+38 fold”, the Rate/min (/min (at 2 nM enzyme)) was 0.0208 and the activity comparison was “the cleaved preparation was 38 fold more active than the non-cleaved preparation”.
